We go through 3 molecules from PMC10397247.

Holding throughout (test): two-hybrid library CCNG1;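 also: natural log of median RNA to DNA barcode read ratio; higher means stronger binding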
Assay [1] has as its target T1, 4H2444-bH.
T1 chain: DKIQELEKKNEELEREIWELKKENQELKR

For assay [2], the target named is T2, 4H2518-bH.
T2 chain: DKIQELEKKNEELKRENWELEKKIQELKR

For assay [3], the target named is T3, 4H2585-bH.
T3 chain: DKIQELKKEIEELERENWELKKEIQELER

Assay [4] concerns the target T4, 4H264-bH.
T4 chain: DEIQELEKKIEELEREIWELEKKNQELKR

Assay [5] deals with T5, 4H2760-bH.
T5 chain: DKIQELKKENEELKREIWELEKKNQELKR

The target of assay [6] is T6, 4H2859-bH.
T6 chain: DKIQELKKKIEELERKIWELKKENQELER

The target of assay [7] is T7, 4H2931-bH.
T7 chain: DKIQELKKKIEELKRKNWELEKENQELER

In assay [8] the target is T8, 4H3041-bH.
T8 chain: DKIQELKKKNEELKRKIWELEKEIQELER

Assay [9] deals with T9, 4H3297-bH.
T9 chain: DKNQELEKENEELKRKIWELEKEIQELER

The target in assay [10] is T10, 4H3364-bH.
T10 chain: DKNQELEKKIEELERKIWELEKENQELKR

The target of assay [11] is T11, 4H3381-bH.
T11 chain: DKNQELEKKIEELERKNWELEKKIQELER

In assay [12] the target is T12, 4H349-bH.
T12 chain: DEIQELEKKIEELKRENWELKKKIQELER

Assay [13] has as its target T13, 4H56-bH.
T13 chain: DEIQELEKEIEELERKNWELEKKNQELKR

In assay [14] the target is T14, 4H730-bH.
T14 chain: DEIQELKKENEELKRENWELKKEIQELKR

Assay [15] has as its target T15, 4H796-bH.
T15 chain: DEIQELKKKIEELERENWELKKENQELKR

Assay [16] concerns the target T16, 4H932-bH.
T16 chain: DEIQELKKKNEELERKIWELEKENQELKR

Assay [17] concerns the target T17, 4H949-bH.
T17 chain: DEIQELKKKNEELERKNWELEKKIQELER

In assay [18] the target is T18, 4H363-bA.
T18 chain: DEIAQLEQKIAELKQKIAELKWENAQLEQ

Assay [19] concerns the target T19, 4H3907-bA.
T19 chain: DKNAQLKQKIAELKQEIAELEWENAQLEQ

In assay [20] the target is T20, 4H3961-bA.
T20 chain: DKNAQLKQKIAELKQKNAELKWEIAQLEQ

In assay [21] the target is T21, 4H470-bA.
T21 chain: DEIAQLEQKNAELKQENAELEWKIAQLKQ

Assay [22] concerns the target T22, 4H1710-bA.
T22 chain: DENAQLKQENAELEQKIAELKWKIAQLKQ

In assay [23] the target is T23, 4H1804-bA.
T23 chain: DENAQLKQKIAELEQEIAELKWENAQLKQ

Assay [24] concerns the target T24, 4H1899-bA.
T24 chain: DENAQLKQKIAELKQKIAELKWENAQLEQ

For assay [25], the target named is T25, 4H1985-bA.
T25 chain: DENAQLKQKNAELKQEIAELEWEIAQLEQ

Assay [26] has as its target T26, 4H3129-bA.
T26 chain: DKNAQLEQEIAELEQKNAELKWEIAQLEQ

Assay [27] addresses T27, 4H3162-bA.
T27 chain: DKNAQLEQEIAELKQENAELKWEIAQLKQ

For assay [28], the target named is T28, 4H3172-bA.
T28 chain: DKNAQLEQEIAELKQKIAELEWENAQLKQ

In assay [29] the target is T29, 4H3175-bA.
T29 chain: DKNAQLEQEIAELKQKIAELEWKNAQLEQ

Assay [30] has as its target T30, 4H3277-bA.
T30 chain: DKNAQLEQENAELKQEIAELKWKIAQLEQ

The target of assay [31] is T31, 4H3298-bA.
T31 chain: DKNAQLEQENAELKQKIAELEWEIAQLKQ

Assay [32] concerns the target T32, 4H3414-bA.
T32 chain: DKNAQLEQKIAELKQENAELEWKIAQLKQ

The target of assay [33] is T33, 4H3462-bA.
T33 chain: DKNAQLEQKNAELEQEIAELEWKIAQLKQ

For assay [34], the target named is T34, 4H3497-bA.
T34 chain: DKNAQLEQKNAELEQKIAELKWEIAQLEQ

The target in assay [35] is T35, 4H3613-bA.
T35 chain: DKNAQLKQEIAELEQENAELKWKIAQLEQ

Assay [36] deals with T36, 4H3628-bA.
T36 chain: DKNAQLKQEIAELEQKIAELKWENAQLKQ

For assay [37], the target named is T37, 4H3631-bA.
T37 chain: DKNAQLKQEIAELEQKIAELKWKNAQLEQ

In assay [38] the target is T38, 4H3638-bA.
T38 chain: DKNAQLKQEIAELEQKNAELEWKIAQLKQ

Assay [39] concerns the target T39, 4H3817-bA.
T39 chain: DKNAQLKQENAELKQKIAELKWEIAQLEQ

Assay [40] concerns the target T40, 4H3855-bA.
T40 chain: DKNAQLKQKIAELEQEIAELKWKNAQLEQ

In assay [41] the target is T41, 4H3858-bA.
T41 chain: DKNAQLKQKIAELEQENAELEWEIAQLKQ

Assay [42] addresses T42, 4H3926-bA.
T42 chain: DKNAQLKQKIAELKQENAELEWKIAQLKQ

The target in assay [43] is T43, 4H3974-bA.
T43 chain: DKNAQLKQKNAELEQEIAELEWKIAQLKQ

Assay [44] deals with T44, 4H570-bA.
T44 chain: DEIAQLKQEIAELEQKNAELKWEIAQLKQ

The target of assay [45] is T45, 4H584-bA.
T45 chain: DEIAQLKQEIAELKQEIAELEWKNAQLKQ

For assay [46], the target named is T46, 4H591-bA.
T46 chain: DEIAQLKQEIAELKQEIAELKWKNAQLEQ

Assay [47] concerns the target T47, 4H619-bA.
T47 chain: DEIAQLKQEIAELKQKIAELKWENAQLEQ

Assay [48] deals with T48, 4H626-bA.
T48 chain: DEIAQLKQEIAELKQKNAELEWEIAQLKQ

Assay [49] concerns the target T49, 4H850-bA.
T49 chain: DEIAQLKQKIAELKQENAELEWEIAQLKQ

In assay [50] the target is T50, 4H906-bA.
T50 chain: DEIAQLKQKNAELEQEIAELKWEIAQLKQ

Assay [51] addresses T51, O14-bA.
T51 chain: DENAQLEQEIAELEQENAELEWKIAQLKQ

B1: 4H2444-bH (peptide)
chain: DKIQELEKKNEELEREIWELKKENQELKR
Regarding B1, the interaction score was 1.48 in assay [1]; 0.571 in assay [2]; 0.868 in assay [3]; -2.12 in assay [4]; 0.592 in [5]; 0.771 in assay [6]. In addition, the interaction score in assay [7] is 0.0488; in [8] it was -0.0348; in assay [9], 0.285; in assay [10], 0.375; in assay [11] it was 0.313; in assay [12], -0.694. Moreover, the interaction score was -0.284 in assay [13]; -0.91 in assay [14]; 0.0566 in assay [15]; 0.176 in assay [16]; -0.478 in assay [17].

B2: 4H363-bA (peptide)
chain: DEIAQLEQKIAELKQKIAELKWENAQLEQ
Consider B2, for which the interaction score was 1.08 in [18], 1.32 in [19], 0.154 in assay [20] and -2.31 in [21].

B3: 4H1710-bA (peptide)
chain: DENAQLKQENAELEQKIAELKWKIAQLKQ
For B3, the interaction score was 0.102 in [22]; -0.669 in [23]; -0.115 in [24]; 2.11 in assay [25]; 0.367 in assay [26]; -0.713 in assay [27]. Besides, the interaction score was -0.97 in [28]; -0.421 in [29]; -0.282 in assay [30]; 0.819 in assay [31]; -0.541 in assay [32]; 1.04 in [33]. The interaction score in [34] came to 1.01; in assay [35], 0.262; in assay [36], 0.848; in assay [37], 1.48; in [38] it was 0.729; in assay [39], 1.53. Moreover, the interaction score in assay [40] was 0.515; in assay [41], 0.318; in assay [42], 0.352; in assay [43], 1.34; in assay [44] it was -1.24; in [45], -0.0679. Further, the interaction score in assay [46] was -1.11; in assay [47], 0.519; in assay [48], -0.621; in assay [49], 0.0118; in [50], 0.904; in [51] it was -1.06.
